In IntAct's records for PubMed 16137684:

B1: Thyroid receptor-interacting protein 6 (Homo sapiens), Q15654 (parent)
chain: MSGPTWLPPKQPEPARAPQGRAIPRGTPGPPPAHGAALQPHPRVNFCPLPSEQCYQAPGGPEDRGPAWVGSHGVLQHTQGLPADRGGLRPGSLDAEIDLLSSTLAELNGGRGHASRRPDRQAYEPPPPPAYRTGSLKPNPASPLPASPYGGPTPASYTTASTPAGPAFPVQVKVAQPVRGCGPPRRGASQASGPLPGPHFPLPGRGEVWGPGYRSQREPGPGAKEEAAGVSGPAGRGRGGEHGPQVPLSQPPEDELDRLTKKLVHDMNHPPSGEYFGQCGGCGEDVVGDGAGVVALDRVFHVGCFVCSTCRAQLRGQHFYAVERRAYCEGCYVATLEKCATCSQPILDRILRAMGKAYHPGCFTCVVCHRGLDGIPFTVDATSQIHCIEDFHRKFAPRCSVCGGAIMPEPGQEETVRIVALDRSFHIGCYKCEECGLLLSSEGECQGCYPLDGHILCKACSAWRIQELSATVTTDC

Legend:
Conditions in all cases: with scrib_human SCRIB
[1] = variants of: B1
[2] = variants of: B1; remark: listed apart in the source
[3] = variants of: B1; remark: listed apart in the source
[4] = variants of: B1; remark: listed apart in the source

Variant: C476A
- effect of a mutation on the interaction [1]: disrupting interaction
- effect of a mutation on the interaction [2]: decreasing interaction

Variant: T474A
- effect of a mutation on the interaction [3]: disrupting interaction
- effect of a mutation on the interaction [4]: decreasing interaction
